Test results from paper PMC7614388, “Diversification in the inositol tris/tetrakisphosphate kinase (ITPK) family: crystal structure and enzymology of the outlier AtITPK4” (Biochemical Journal, 2023).

Substrate: Nc1ncnc2c1ncn2[C@@H]1O[C@H](COP(=O)(O)OP(=O)(O)OP(=O)(O)O)[C@@H](O)[C@H]1O
Test: HPLC kinase assay, Michaelis-Menten fit
Type: biochemical, Arabidopsis thaliana
Settings: 1 mM Ins(1,4,6)P3, ATP 0-5 mM, 6 mM MgCl2, 20 mM HEPES pH 7.3, 25 °C, 3 µM enzyme

B1: AtITPK4 (Arabidopsis thaliana) (protein)
chain: MKGVLLDESVLFSPESEDSSPSLRESVPSLLRLLRYSMIRTGISYGLDLPENKVDLLRKTAAEYSINCLPLETSLTSVTFGDTLKAWYSDGSILYVASSRKEEILRELSPSQLVVLLDVEGDSLEDPNIIHIHSLEELPMTICCINKKAMGDGAAIVAYIMKPSRVEDFAKRGALPMYPTSCGLIFLPLMFEFPLASQLKHADIIFHKATDEILSIELNCSDSKSSVAVTFSTGMEKLKKYMEDQNACAIVDPIRNIYPVVDRLKMQHILLGLEGLGAAGRKIRGACFLKIDSYDEPDLAQNLSRAGLSLPCIVKPQVACGVADAHSMAIVFRVEDFKNLNTPVPAIIQEYVDHSSRIFKFYVLGETIFHAVKKSIPSSSSLRKSAEENGLKPILFDSLKSLPVDSANQNPVSEIDLELVTEAATWLRKKLDLTIFGFDVVIQEGTGDHVIVDLNYLPSFKEVPDNIAVPAFWEAIRNRFDQHVQEKH
notes: full-length; pOPINE, non-cleavable C-terminal 6xHis tag kept; Ni-NTA purified; HAD-like domain 1-150, ATP-grasp kinase domain from 151; no evidence of homo-oligomers
  Km: 52 ± 7 µM
